The values below come from publication PMC10951066, “The self-reactive FVIII T cell repertoire in healthy individuals relies on a short set of epitopes and public clonotypes” (Frontiers in Immunology, 2024).

For test [1], the system named is CD4 T cells from healthy donors. Kind of test: CD134/CD137 activation-induced marker flow cytometry of pooled specific T cell lines. The settings on record: four donors, overnight re-stimulation with antigen-loaded DCs, unstimulated control removed. It is filed as cell-based, human. The procedure:
Positive antigen-specific T cell lines determined by using the ELISPOT assay were pooled together at day 21, after 24 h of resting in IMDM medium and with the absence of cytokine stimuli. The pooled T cell lines were re-stimulated overnight with autologous DCs alone (control) or with DCs previously loaded with either 0.2 µM of rFVIII, 0.2 µM of ovalbumin, or 0.25 µM of KLH. Following 24 h of stimulation, cells were harvested in cell staining buffer (phosphate-buffered saline/EDTA 2 mM/bovine serum albumin 0.5%) and then stained for CD4 (Vio-Blue, clone REA623, Miltenyi Biotec) and activation-induced markers CD134 (OX-40) (PE anti-human, clone Ber-ACT35, Biolegend) and CD137 (4-1BB) (APC anti-human, clone 4B4-1, Biolegend). The CD4/CD134/CD137-positive population for each condition was sorted by flow cytometry ([…] III; Becton Dickinson, San Jose, CA, USA).
Firstly, we aimed to characterize the T cell response to rFVIII in vitro using chicken ovalbumin (Ova) as a non-self-protein benchmark. Given the low frequency of FVIII-specific T cells in healthy donors, we enriched the CD4 population in vitro before analyzing their specificity and sorting them for TCR CDR3β sequencing (Figure 1A). […] Antigen specificity was assessed using the IFN-γ ELISPOT assay. […] The average number per donor of detected clonotypes was 535 and 918, for a total of 2,143 and 3,672 clonotypes detected for FVIII and Ova. […]
(In general: Flow cytometry measures light scatter and fluorescence of single cells or particles in a stream.)

Test [2] shares this test system. The test is described as follows: IFN-γ ELISPOT of CD4 T cell lines raised against rFVIII, ovalbumin or KLH (four donors). It is filed as cell-based, human. From the text:
PBMCs were purified from the whole blood of anonymous healthy donors, who gave informed consent (Etablissement Français du Sang, Rungis, France), using Ficoll-Paque®. Monocyte-derived dendritic cells (DCs) were produced from cells isolated using Percoll gradient by 5 days of culture in AIM-V medium (Invitrogen, Villebon-sur-Yvette, France) supplemented with 1,000 U/ml recombinant human (rh) IL-4 and rhGM-CSF (both from R&D Systems, Lille, France). Mature DCs were produced by two supplementary days of culture in the presence of LPS (1 µg/ml) and R848 (10µg/ml). CD4 T cells were isolated from autologous PBMCs by positive selection using magnetic labeling with anti-CD4 mAbs conjugated to magnetic microbeads followed by magnetic cell sorting, as recommended by the manufacturer (Miltenyi Biotec, Bergisch Gladbach, Germany). Immature DCs were loaded overnight at 37 °C with either 0.2 µM of rFVIII, 0.2 µM of ovalbumin, or 0.25 µM of KLH in 96-well U-bottom plates, while mature DCs were used for FVIII peptides (10 ug/ml). […] 10,000 lymphocytes were collected at day 19 from each T cell line (expanded T cells contained in one well) and their specificity was assessed by using IFN-g ELISPOT.
T cells were incubated with autologous DCs alone (control) or with DCs incubated with rFVIII (0.2 µM), ovalbumin (3 µM), and KLH (1 µM) or PBMCs for FVIII peptides (10 µg/ml) in MultiScreen 96-well plates (Merck Millipore) previously coated with 2.5 µg/mL of anti-human IFN-γ monoclonal antibody (mAb; 1-D1K; Mabtech). […] The spot number was determined by using the ELISPOT Reader System (Autoimmun Diagnostika, Ebinger, Germany). HLA restriction was assessed using monoclonal antibodies (10 μg/ml) specific to HLA-DP (B7/21), HLA-DQ (SPVL3), or HLA-DR (L243).
Firstly, we aimed to characterize the T cell response to rFVIII in vitro using chicken ovalbumin (Ova) as a non-self-protein benchmark. […] Antigen specificity was assessed using the IFN-γ ELISPOT assay. […] The average number per donor of detected clonotypes was 535 and 918, for a total of 2,143 and 3,672 clonotypes detected for FVIII and Ova. […]

B1: ovalbumin: chicken ovalbumin, non-self-protein benchmark (protein, UniProt P01012 2-386, looked up)
Ovalbumin: GSIGAASMEFCFDVFKELKVHHANENIFYCPIAIMSALAMVYLGAKDSTRTQINKVVRFDKLPGFGDSIEAQCGTSVNVHSSLRDILNQITKPNDVYSFSLASRLYAEERYPILPEYLQCVKELYRGGLEPINFQTAADQARELINSWVESQTNGIIRNVLQPSSVDSQTAMVLVNAIVFKGLWEKAFKDEDTQAMPFRVTEQESKPVQMMYQIGLFRVASMASEKMKILELPFASGTMSMLVLLPDEVSGLEQLESIINFEKLTEWTSSNVMEERKIKVYLPRMKMEEKYNLTSVLMAMGITDVFSSSANLSGISSAESLKISQAVHAAHAEINEAGREVVGSAEAGVDAASVSEEFRADHPFLFCIKHIATNAVLFFGRCVSP
With B1, the “mean activation percentage (CD134/CD137 double-positive of total CD4)” value in test [1] worked out at 1.25%. Further, the “positive T cell lines” value in test [2] (Donor #1180, positive/tested T cell lines) is reported as 13/24. Besides, the “specific T cell lines” value in test [2] (among 96 T cell lines tested for each antigen, four healthy donors, specific = spot count twofold over control, minimum difference 25 spots) worked out at 58. In addition, the “precursor frequency of antigen-specific CD4 T cells” value in test [2] (four healthy donors, estimated with Poisson distribution) is recorded as 5 cells/M.
